What was measured:
Test in all cases: ELISA; receptor in solution, complex captured on BMP-7 GF mAb
[1] = biological target: BMP-7 complex containing biotinylated GF (mature BMP-7 biotinylated through the glycan, reconstituted with … (human, UniProt P18075 293-431, biotin through the sugars (sodium metaperiodate, hydrazide PEG4 Biotin)))
[2] = biological target: BMP-7 complex containing biotinylated prodomain (prodomain biotinylated through amines, reconstituted with … (human, UniProt P18075 293-431, biotin through amines (EZ-Link NHS-PEG4-Biotin)))
[3] = biological target: unbiotinylated BMP-7 complex (bone morphogenetic protein 7 mature domain/prodomain soluble complex) (human, UniProt P18075 293-431)
Sequence of unbiotinylated BMP-7 complex (bone morphogenetic protein 7 mature domain/prodomain soluble complex) (P18075 30-292, chain 1 of 2): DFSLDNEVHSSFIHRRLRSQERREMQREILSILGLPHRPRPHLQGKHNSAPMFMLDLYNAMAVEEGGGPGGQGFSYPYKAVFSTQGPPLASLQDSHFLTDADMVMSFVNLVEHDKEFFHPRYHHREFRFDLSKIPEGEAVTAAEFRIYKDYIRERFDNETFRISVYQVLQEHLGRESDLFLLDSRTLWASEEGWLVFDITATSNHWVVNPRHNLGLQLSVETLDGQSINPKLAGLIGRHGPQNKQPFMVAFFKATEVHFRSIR
Sequence of unbiotinylated BMP-7 complex (bone morphogenetic protein 7 mature domain/prodomain soluble complex) (P18075 293-431, chain 2 of 2): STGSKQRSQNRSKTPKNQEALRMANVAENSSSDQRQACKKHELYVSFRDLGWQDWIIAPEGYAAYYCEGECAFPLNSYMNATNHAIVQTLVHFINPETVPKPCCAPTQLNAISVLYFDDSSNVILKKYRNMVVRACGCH

Sequence of BMP-7 complex containing biotinylated GF (mature BMP-7 biotinylated through the glycan, reconstituted with … (P18075 30-292, chain 1 of 2): as the sequence (P18075 30-292, chain 1 of 2) above
Sequence of BMP-7 complex containing biotinylated GF (mature BMP-7 biotinylated through the glycan, reconstituted with … (P18075 293-431, chain 2 of 2): as the sequence (P18075 293-431, chain 2 of 2) above
Sequence of BMP-7 complex containing biotinylated prodomain (prodomain biotinylated through amines, reconstituted with … (P18075 30-292, chain 1 of 2): as the sequence (P18075 30-292, chain 1 of 2) above
Sequence of BMP-7 complex containing biotinylated prodomain (prodomain biotinylated through amines, reconstituted with … (P18075 293-431, chain 2 of 2): as the sequence (P18075 293-431, chain 2 of 2) above

- Kd [1]: 8.7 nM
- Kd [2]: 19 nM
- Kd [3]: 11.9 nM
B1: BMPR2-Fc (bone morphogenetic protein receptor type-2 fused to Fc) (Fc fusion)
chain: SQNQERLCAFKDPYQQDLGIGESRISHENGTILCSKGSTCYGLWEKSKGDINLVKQGCWSHIGDPQECHYEECVVTTTPPSIQNGTYRFCCCSTDLCNVNFTENFPPPDTTPLSPPHSFNRDET
